Laboratory results published in patent US10654915B2, “Antibodies useful in passive influenza immunization” (priority 2011, dated 2020).
Several values for one entry are separate records, joined by “and”; a condition that tells them apart may be missing. Identical values can stand only once. Like-named read-outs stand apart in the source and are kept apart here.

Key:
[1] = target: H1 HA; assay type: binding, influenza A; settings: read-out: affinity
[2] = target: H5 HA; assay type: binding, influenza A; settings: read-out: affinity
[3] = target: H7 HA; assay type: binding, influenza A; settings: read-out: affinity
[4] = target: H9 HA; assay type: binding, influenza A; settings: read-out: affinity
[5] = target: H1N1 A/CA/07/09 (H1 Calif/07/09) HA; assay type: binding, influenza A
[6] = target: H5N1 A/VN/1204 (H5 Vietnam/1203/2004) HA; assay type: binding, influenza A
[7] = system: H1N1 A/CA/07/09; test: MDCK monolayer microneutralization assay; assay type: cell-based, influenza A
[8] = system: H5N1 A/VN/1204; assay type: cell-based, influenza A
[9] = system: H2N2 A/Mallard/MN/2008; assay type: cell-based, influenza A
[10] = system: H9N2 Mallard/MN/98; assay type: cell-based, influenza A
[11] = system: H1N1; assay type: cell-based, influenza A
[12] = system: H7N3; assay type: cell-based, influenza A
[13] = system: H5N1; assay type: cell-based, influenza A
[14] = system: H9N2; assay type: cell-based, influenza A
[15] = system: H1N1; design: species or system mice; settings: mouse, in vivo
[16] = system: H5N1; design: species or system mice; settings: mouse, in vivo
[17] = system: virus 10 times the LD50 delivered intranasally; test: Prophylaxis in mice, potency (EC50); assay type: in vivo; settings: single intraperitoneal dose at Day -1, virus at Day 0
[18] = system: H1N1: A/CA/04/09; design: species or system mice; settings: mouse, in vivo, ip, 10 mg/kg
[19] = system: H5N1: A/Vietnam/1203/04/HPAI; design: species or system mice; settings: mouse, in vivo, ip, 10 mg/kg
[20] = system: H1N1 Influenza A/Ca/04/09; test: Comparison to treatment with Tamiflu in infected mice; assay type: in vivo
[21] = system: A/Ca/04/09 (H1N1); test: In vivo efficacy, treatment at Day 2; design: species or system mice; settings: IP at Day 2, 10 mg/kg (mixture 10 mg/kg each), FIGS. 6A, 6C
[22] = system: Philippines 2/82; design: species or system mice; settings: mouse, in vivo
[23] = target: HA of clades spanning Group 1; test: Standard FortéBio assay (FIG. 3A); assay type: binding, influenza A; settings: Group 1, FIG. 3A
[24] = system: HA1; test: Binding to HA1; design: species or system influenza A
[25] = target: H3N2 A/Perth/16/2009 HA; assay type: binding, influenza A
[26] = target: H3N2 A/New York/55/2004 HA; test: Affinity by FortéBio; assay type: binding, influenza A
[27] = target: H3N2 A/Hong Kong/8/68 HA; assay type: binding, influenza A
[28] = target: H7N7 A/Netherlands/219/03 HA; assay type: binding, influenza A
[29] = target: H7N3 A/Canada/rv444/04 HA; assay type: binding, influenza A
[30] = system: H3N2 A/Perth/16/2009; test: MDCK monolayer microneutralization assay; assay type: cell-based, influenza A
[31] = system: H3 A/Phillipines/2/82 x-79; test: MDCK monolayer microneutralization assay; assay type: cell-based, influenza A
[32] = system: H3 A/Udorn/307/1976; test: MDCK monolayer microneutralization assay; assay type: cell-based, influenza A
[33] = system: H3N2 A/New York/55/2004; test: MDCK monolayer microneutralization assay; assay type: cell-based, influenza A
[34] = system: H3N2 A/Wisconsin/67/2005; test: MDCK monolayer microneutralization assay; assay type: cell-based, influenza A
[35] = system: H3N2 A/Hong Kong/8/68 (A/HongKong/68); test: MDCK monolayer microneutralization assay; assay type: cell-based, influenza A
[36] = system: H3 A/SW/MN/02719; assay type: cell-based, influenza A
[37] = system: H4 (H4N4) A/Bufflehead; assay type: cell-based, influenza A
[38] = system: H7N3 A/Canada/rv444/04; assay type: cell-based, influenza A
[39] = system: H7N7 A/Netherlands/219/03; assay type: cell-based, influenza A
[40] = system: H7 A/Sanderling/A106-125; test: MDCK monolayer microneutralization assay; assay type: cell-based, influenza A; settings: H7 A/Sanderling/A106-125, bird virus
[41] = system: H7 A/Redknot/NJ/1523470/06; test: MDCK monolayer microneutralization assay; assay type: cell-based, influenza A; settings: H7 A/Redknot/NJ/1523470/06, bird virus
[42] = system: H7 A/Ruddy Turnstone/A106-892; test: MDCK monolayer microneutralization assay; assay type: cell-based, influenza A; settings: H7 A/Ruddy Turnstone/A106-892, bird virus
[43] = system: H10 (H10N7) A/Northern Shoveler; assay type: cell-based, influenza A
[44] = system: H3N2: A/Perth/16/09; design: species or system mice; settings: mouse, in vivo, ip, 10 mg/kg
[45] = system: H7N3: A/Red Knot/NJ/1523470/06; design: species or system mice; settings: mouse, in vivo, ip, 10 mg/kg
[46] = system: H3; test: Binding by MAB579 in vitro (FIG. 2); design: species or system influenza A; settings: H3, FIG. 2
[47] = system: H7; test: Binding by MAB579 in vitro (FIG. 2); design: species or system influenza A; settings: H7, FIG. 2
[48] = system: H1; test: Binding by MAB579 in vitro (FIG. 2); design: species or system influenza A; settings: H1, FIG. 2
[49] = target: HA of clades spanning Group 2; test: Standard FortéBio assay (FIG. 3B); assay type: binding, influenza A; settings: Group 2, FIG. 3B

B1: MAB53 (antibody, V domains shown)
VH: QVQLVQSGAEVRKPGSSVKVSCKVSGGIIRKYAINWVRQAPGQGLEWMGGIIAIFNTANYAQKFQGRVTITADESTSTVYMELSSLRSEDTALYYCARGMNYYSDYFDYWGQGSLVTVSP
VL: EIVLTQSPGTLSLSPGERATLSCRASQSVRSNNLAWYQHKPGQAPRLLIFGASSRATGIPDRFSGSGSGTDFTLTISRLEPEDFAVYYCQQYGSSPALTFGGGTKVEIK
modifications: CHAIN (1)...(120) MAB53 heavy chain sequence of variable domain; DOMAIN (31)...(35) CDR1; DOMAIN (50)...(66) CDR2; DOMAIN (99)...(110) CDR3; CHAIN (1)...(109) MAB53 light chain sequence; DOMAIN (24)...(35) CDR1; DOMAIN (51)...(57) CDR2; DOMAIN (90)...(98) CDR3
Question: With B1 as the molecule, how does the Kd [1] read?
Answer: 0.06 nM

Question: What about the Kd [2] of the same molecule?
Answer: 6 nM

Question: What about the Kd [3] of the same molecule?
Answer: 0.07 nM

Question: What about the Kd [4] of the same molecule?
Answer: 0.03 nM

Question: And the Kd [5]?
Answer: 0.1 nM

Question: And the Kd ([6]; read-out: Affinity by FortéBio)?
Answer: 0.5 nM

Question: What about the Kd ([6]; read-out: KD) of the same molecule?
Answer: 0.5 nM

Question: And the “Potency Difference” value ([7]; MAB53 vs CR6261 EC50, H1N1 A/CA/07/09)?
Answer: 30x

Question: What about the “EC50” value ([7]; in vitro neutralization, H1N1 A/CA/07/09) of the same molecule?
Answer: 0.14 µg/mL

Question: And the “EC50” value [8]?
Answer: 0.10 µg/mL

Question: And the “Potency Difference” value [8]?
Answer: 40x

Question: And the “EC50” value [9]?
Answer: 1.20 µg/mL

Question: What about the “EC50” value [10] of the same molecule?
Answer: 0.10 µg/mL

Question: And the “low doses that neutralized infection” value [11]?
Answer: 1 to 5 µg/mL

Question: What about the “low doses that neutralized infection” value [12] of the same molecule?
Answer: 1 to 5 µg/mL

Question: And the “low doses that neutralized infection” value [13]?
Answer: 1 to 5 µg/mL

Question: And the “low doses that neutralized infection” value [14]?
Answer: 1 to 5 µg/mL

Question: What about the survival [15] of the same molecule?
Answer: 90% and 50%

Question: What about the survival [16] of the same molecule?
Answer: 80% and 60% and 50%

Question: And the “EC50 (prophylaxis potency)” value [17]?
Answer: 0.4 mg/kg

Question: And the “therapeutic effectiveness (survival)” value [18]?
Answer: fully effective

Question: And the “therapeutic effectiveness (survival)” value [19]?
Answer: fully effective

Question: What about the survival ([20]; 10 mice per group, treatment from Day +1, to Day 14) of the same molecule?
Answer: eight of the ten mice survived past Day 8 to Day 14

Question: What about the “weight relative to original weight (in words)” value ([20]; by Day 14) of the same molecule?
Answer: the original weight was exceeded

Question: And the “day at which decline in weight was reversed” value ([20]; treatment from Day +1)?
Answer: 4 days

Question: And the protection / survival [21]?
Answer: protective

Question: What about the protection / survival [22] of the same molecule?
Answer: resulted in death after 10 days

Question: And the “affinity across clades (in words)” value [23]?
Answer: sub-nM affinity

Question: And the “binding to HA1” value [24]?
Answer: does not bind HA1

B2: MAB579 (antibody, V domains shown)
VH: QVQLVQSGAEVKKPGASVKVSCKTSGYTFTAYTIHWVRQAPGQRLEWMGWINAGNGHTKYSQRFKGRVTITRDTSARTTYMELRSLTSEDTALYFCARGPETYYYDKTNWLNSHPDEYFQHWGHGTQVTVSS
VL: DIQMTQSPSTLSASVGDRVTITCRASQTINNYLAWYQQKPGKAPKLLIYKASSLESGVPSRFSGSGSGTEFTLTISSLQPDDFATYYCQEYNNDSPLTFGGGTKVEIK
modifications: CHAIN (1)...(132) MAB579 heavy chain sequence of variable domain; DOMAIN (31)...(35) CDR1; DOMAIN (50)...(67) CDR2; DOMAIN (99)...(121) CDR3; CHAIN (1)...(108) MAB579 light chain sequence of variable domain; DOMAIN (24)...(34) CDR1; DOMAIN (50)...(57) CDR2; DOMAIN (89)...(98) CDR3
Question: With B2 as the molecule, how does the Kd ([25]; read-out: Affinity by FortéBio) read?
Answer: 0.7 nM

Question: And the Kd ([25]; read-out: KD)?
Answer: 0.8 nM

Question: And the Kd [26]?
Answer: 0.2 nM

Question: And the Kd [27]?
Answer: 0.2 nM

Question: And the Kd ([28]; read-out: Affinity by FortéBio)?
Answer: 0.4 nM

Question: What about the Kd ([28]; read-out: KD) of the same molecule?
Answer: 0.4 nM

Question: And the Kd [29]?
Answer: 0.6 nM

Question: And the “IC50” value ([30]; H3 A/Perth/16/2009)?
Answer: 0.2 µg/mL

Question: What about the “Potency Difference” value ([30]; MAB579 vs CR8020 EC50, H3N2 A/Perth/16/2009) of the same molecule?
Answer: 40x

Question: What about the “EC50” value ([30]; in vitro neutralization, H3N2 A/Perth/16/2009) of the same molecule?
Answer: 0.05 µg/mL

Question: And the “IC50” value [31]?
Answer: 0.9 µg/mL

Question: And the “IC50” value [32]?
Answer: 1.9 µg/mL

Question: And the “IC50” value ([33]; H3 A/New York/55/2004*)?
Answer: 1.1 µg/mL

Question: What about the “Potency Difference” value ([33]; MAB579 vs CR8020 EC50, H3N2 A/New York/55/2004) of the same molecule?
Answer: 5x

Question: And the “EC50” value ([33]; in vitro neutralization, H3N2 A/New York/55/2004)?
Answer: 2.0 µg/mL

Question: What about the “IC50” value ([34]; H3 A/Wisconsin/67/2005) of the same molecule?
Answer: 1.0 µg/mL

Question: And the “Potency Difference” value ([34]; MAB579 vs CR8020 EC50, H3N2 A/Wisconsin/67/2005)?
Answer: 3x

Question: And the “EC50” value ([34]; in vitro neutralization, H3N2 A/Wisconsin/67/2005)?
Answer: 1.0 µg/mL

Question: What about the “IC50” value ([35]; H3 A/HongKong/68) of the same molecule?
Answer: 2.8 µg/mL

Question: What about the “Potency Difference” value ([35]; MAB579 vs CR8020 EC50, H3N2 A/Hong Kong/8/68) of the same molecule?
Answer: 3x

Question: And the “EC50” value ([35]; in vitro neutralization, H3N2 A/Hong Kong/8/68)?
Answer: 2.0 µg/mL

Question: What about the “IC50” value [36] of the same molecule?
Answer: 3.9 µg/mL

Question: And the “EC50” value [37]?
Answer: 15.0 µg/mL

Question: And the “IC50” value [37]?
Answer: 15.5 µg/mL

Question: And the “Potency Difference” value [37]?
Answer: 3x

Question: And the “EC50” value [38]?
Answer: 0.5 µg/mL

Question: What about the “IC50” value [38] of the same molecule?
Answer: 1.6 µg/mL

Question: And the “EC50” value [39]?
Answer: 0.7 µg/mL

Question: And the “IC50” value [39]?
Answer: 0.6 µg/mL

Question: And the “Potency Difference” value [39]?
Answer: 20x

Question: And the “IC50” value [40]?
Answer: >20 µg/mL

Question: And the “IC50” value [41]?
Answer: >20 µg/mL

Question: And the “IC50” value [42]?
Answer: >20 µg/mL

Question: And the “EC50” value [43]?
Answer: 0.8 µg/mL

Question: And the “IC50” value [43]?
Answer: 0.8 µg/mL

Question: And the “therapeutic effectiveness (survival)” value [44]?
Answer: essentially fully effective

Question: And the “therapeutic effectiveness (survival)” value [45]?
Answer: essentially fully effective

Question: And the protection / survival [21]?
Answer: no survivors after 10 days

Question: What about the protection / survival [22] of the same molecule?
Answer: effective

Question: What about the “binding affinity (in words)” value [46] of the same molecule?
Answer: tightly bound

Question: And the “binding affinity (in words)” value [47]?
Answer: tightly bound

Question: What about the “binding affinity (in words)” value [48] of the same molecule?
Answer: negligible binding affinity

Question: And the “affinity across clades (in words)” value [49]?
Answer: sub-nM affinity
